Biological target: hSOX2-HMG (Homo sapiens, UniProt P48431)
Assay: EMSA

B1: P1/P2 SOX2 binding DNA (dsDNA)
DNA 1: GGAAACAATGGA
DNA 2: TCCATTGTTTCC
B1 was tested, and the Kd was roughly 0.61 µM.

Source: PMC12378428
